Experimental data taken from patent publication CN113150156A (ZHEJIANG BORUI BIOPHARMACEUTICAL CO LTD, dated 2021).
Blank lines part the entries; values can stand above or below the molecule they belong to.

Key:
[1] = target: T1, 生物素标记的TIGIT (Acrobiosystems, TIT-H82E5) (UniProt Q495A1); assay: competition ELISA, control IgG, inhibition of biotinylated TIGIT binding to coated CD155
T1 sequence (biotin-labelled (生物素标记), site not stated, looked up): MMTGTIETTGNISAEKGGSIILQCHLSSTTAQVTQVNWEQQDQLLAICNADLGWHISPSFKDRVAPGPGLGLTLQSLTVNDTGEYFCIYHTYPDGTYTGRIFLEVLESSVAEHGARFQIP

[2] = target: T2, TIGIT on 293T-TIGIT cells (UniProt Q495A1 22-244); assay: flow cytometry on 293T-TIGIT cells, FITC goat anti-mouse IgG detection
T2 construct: whole, on cells; also called 细胞膜上TIGIT; 293T-TIGIT细胞
T2 sequence (looked up): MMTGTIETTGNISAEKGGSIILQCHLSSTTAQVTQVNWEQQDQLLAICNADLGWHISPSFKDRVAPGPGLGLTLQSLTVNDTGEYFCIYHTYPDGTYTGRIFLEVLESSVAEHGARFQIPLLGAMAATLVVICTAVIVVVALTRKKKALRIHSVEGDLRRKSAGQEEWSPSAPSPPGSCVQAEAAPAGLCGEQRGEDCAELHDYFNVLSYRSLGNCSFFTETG

[3] = target: T3, 生物素标记的TIGIT (Acrobiosystems, TIT-H82E5) (UniProt Q495A1 22-141, biotin-labelled (生物素标记), site not stated); assay: competition ELISA, blocking of biotinylated TIGIT binding to coated CD112
T3 sequence (looked up): T1 sequence (biotin-labelled (生物素标记), site not stated, looked up)

[4] = target: T3, 生物素标记的TIGIT (Acrobiosystems, TIT-H82E5); assay: competition ELISA, blocking of biotinylated TIGIT binding to coated CD155
[5] = target: T4, 人TIGIT蛋白 (Acrobiosystems, TIT-H52H3) (human, UniProt Q495A1 22-141); assay: ELISA, human TIGIT protein coated at 0.5 μg/ml, goat anti-mouse IgG detection
T4 construct: Bought recombinant protein coated on ELISA plates
T4 sequence (looked up): T1 sequence (biotin-labelled (生物素标记), site not stated, looked up)

抑制率(%) [1]: 1.68%
Molecule: IgG1 (antibody)

EC50 [2]: 0.0113 nM
IC50 [3]: 3.97 nM
IC50 [4]: 0.804 nM
EC50 [5]: 0.108 nM
B1: 7D3 (antibody, V domains shown)
VH: EVQLQQSGPELVKPGASVKMSCKASGYTFTSYVMHWVKQKPGQGLEWIGYINPYNDGTKYNEKFKGKATLTSDKSSSTAYMELSSLTSEDSAVYYCARRGNGPLRVFAYWGQGTTVTVSS
VL: DIVMTQTPKFMSTSVGDRVSITCKASQDVSTAVAWYQQKPGQSPKLLIYSASYRYTGVPDRFTGSGSGTDFTFTISSVQAEGLAVYYCQQHYSTPPTFGAGTKLEIK
notes: Mouse monoclonal antibody from a hybridoma (BALB/c x SP2/0); also called 鼠源抗体; 鼠源抗TIGIT抗体7D3
